Data on two molecules can be found in publication PMC12069617 (Nature Communications, 2024).

For data set [1], the target named is histone acetyltransferase p300, full-length, Strep II-tagged (human, UniProt Q09472 1-2414). Kind of data set: cross-linking.
The data set “SEC-MALS” concerns the molecule itself. Kind of data set: SEC-MALS. (In gel filtration, larger molecules generally elute earlier.)

Chain of histone acetyltransferase p300, full-length, Strep II-tagged (Q09472 whole entry): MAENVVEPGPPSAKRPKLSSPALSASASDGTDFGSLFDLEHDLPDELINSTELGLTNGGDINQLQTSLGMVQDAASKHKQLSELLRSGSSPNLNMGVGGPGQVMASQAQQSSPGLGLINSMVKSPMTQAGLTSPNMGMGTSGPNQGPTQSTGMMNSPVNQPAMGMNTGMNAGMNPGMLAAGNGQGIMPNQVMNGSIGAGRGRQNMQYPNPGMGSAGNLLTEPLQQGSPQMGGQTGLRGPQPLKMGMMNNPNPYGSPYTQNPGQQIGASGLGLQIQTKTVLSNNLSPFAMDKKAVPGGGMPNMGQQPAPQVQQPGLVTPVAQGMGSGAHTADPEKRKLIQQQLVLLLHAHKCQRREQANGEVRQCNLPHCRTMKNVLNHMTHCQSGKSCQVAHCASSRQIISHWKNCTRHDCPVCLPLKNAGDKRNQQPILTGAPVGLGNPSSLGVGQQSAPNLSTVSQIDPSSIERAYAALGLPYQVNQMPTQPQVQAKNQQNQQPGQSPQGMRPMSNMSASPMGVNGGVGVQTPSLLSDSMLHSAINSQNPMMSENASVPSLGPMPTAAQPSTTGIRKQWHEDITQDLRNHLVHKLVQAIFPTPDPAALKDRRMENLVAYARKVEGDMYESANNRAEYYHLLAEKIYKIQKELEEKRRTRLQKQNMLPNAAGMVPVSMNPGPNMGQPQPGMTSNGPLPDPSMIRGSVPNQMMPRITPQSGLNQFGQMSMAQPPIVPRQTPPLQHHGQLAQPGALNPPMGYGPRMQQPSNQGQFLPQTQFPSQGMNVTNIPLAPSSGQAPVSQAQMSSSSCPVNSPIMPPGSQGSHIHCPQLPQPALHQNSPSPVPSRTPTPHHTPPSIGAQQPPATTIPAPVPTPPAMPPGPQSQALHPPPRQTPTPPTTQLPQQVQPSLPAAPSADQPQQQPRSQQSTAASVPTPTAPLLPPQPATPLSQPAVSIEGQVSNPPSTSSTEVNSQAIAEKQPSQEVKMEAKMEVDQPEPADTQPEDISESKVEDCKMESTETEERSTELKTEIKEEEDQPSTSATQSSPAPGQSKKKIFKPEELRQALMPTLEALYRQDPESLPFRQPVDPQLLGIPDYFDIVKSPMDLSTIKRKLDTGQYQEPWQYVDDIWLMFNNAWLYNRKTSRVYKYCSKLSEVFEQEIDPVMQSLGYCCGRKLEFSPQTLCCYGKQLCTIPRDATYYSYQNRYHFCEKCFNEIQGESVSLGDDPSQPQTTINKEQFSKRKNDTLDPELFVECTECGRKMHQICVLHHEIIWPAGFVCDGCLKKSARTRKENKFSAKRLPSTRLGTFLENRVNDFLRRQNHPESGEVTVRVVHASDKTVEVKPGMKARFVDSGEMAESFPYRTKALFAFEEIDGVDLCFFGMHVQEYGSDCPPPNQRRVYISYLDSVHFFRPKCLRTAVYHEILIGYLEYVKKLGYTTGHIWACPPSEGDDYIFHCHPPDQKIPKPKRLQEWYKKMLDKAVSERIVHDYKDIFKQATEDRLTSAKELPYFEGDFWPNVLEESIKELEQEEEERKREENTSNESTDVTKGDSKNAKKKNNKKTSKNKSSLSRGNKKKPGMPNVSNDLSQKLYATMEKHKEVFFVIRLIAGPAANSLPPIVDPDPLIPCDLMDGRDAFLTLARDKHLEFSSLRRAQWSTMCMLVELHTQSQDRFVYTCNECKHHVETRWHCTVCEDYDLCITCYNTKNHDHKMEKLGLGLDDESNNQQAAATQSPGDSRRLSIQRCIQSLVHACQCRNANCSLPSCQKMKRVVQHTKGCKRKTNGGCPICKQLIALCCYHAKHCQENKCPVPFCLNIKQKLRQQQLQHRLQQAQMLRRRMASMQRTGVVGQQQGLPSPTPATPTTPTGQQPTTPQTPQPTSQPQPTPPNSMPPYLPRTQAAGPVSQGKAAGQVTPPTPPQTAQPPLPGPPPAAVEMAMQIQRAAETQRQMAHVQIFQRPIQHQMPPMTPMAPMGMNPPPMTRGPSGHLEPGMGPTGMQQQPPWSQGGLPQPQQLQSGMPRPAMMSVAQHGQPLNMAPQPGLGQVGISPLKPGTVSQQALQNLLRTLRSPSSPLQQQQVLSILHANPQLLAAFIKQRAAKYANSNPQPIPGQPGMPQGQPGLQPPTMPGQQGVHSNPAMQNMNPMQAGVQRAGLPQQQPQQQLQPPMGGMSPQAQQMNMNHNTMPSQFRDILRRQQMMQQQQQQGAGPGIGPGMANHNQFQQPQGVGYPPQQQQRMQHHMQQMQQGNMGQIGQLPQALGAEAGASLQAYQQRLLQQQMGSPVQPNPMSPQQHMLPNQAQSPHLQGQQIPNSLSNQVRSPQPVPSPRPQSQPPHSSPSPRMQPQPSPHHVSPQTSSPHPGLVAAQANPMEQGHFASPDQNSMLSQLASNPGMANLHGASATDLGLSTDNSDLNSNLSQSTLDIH

B1: progesterone receptor isoform A (PR-A), full-length, Strep II-tagged (receptor)
chain: MSRSGCKVGDSSGTAAAHKVLPRGLSPARQLLLPASESPHWSGAPVKPSPQAAAVEVEEEDGSESEESAGPLLKGKPRALGGAAAGGGAAAVPPGAAAGGVALVPKEDSRFSAPRVALVEQDAPMAPGRSPLATTVMDFIHVPILPLNHALLAARTRQLLEDESYDGGAGAASAFAPPRSSPCASSTPVAVGDFPDCAYPPDAEPKDDAYPLYSDFQPPALKIKEEEEGAEASARSPRSYLVAGANPAAFPDFPLGPPPPLPPRATPSRPGEAAVTAAPASASVSSASSSGSTLECILYKAEGAPPQQGPFAPPPCKAPGASGCLLPRDGLPSTSASAAAAGAAPALYPALGLNGLPQLGYQAAVLKEGLPQVYPPYLNYLRPDSEASQSPQYSFESLPQKICLICGDEASGCHYGVLTCGSCKVFFKRAMEGQHNYLCAGRNDCIVDKIRRKNCPACRLRKCCQAGMVLGGRKFKKFNKVRVVRALDAVALPQPVGVPNESQALSQRFTFSPGQDIQLIPPLINLLMSIEPDVIYAGHDNTKPDTSSSLLTSLNQLGERQLLSVVKWSKSLPGFRNLHIDDQITLIQYSWMSLMVFGLGWRSYKHVSGQMLYFAPDLILNEQRMKESSFYSLCLTMWQIPQEFVKLQVSQEEFLCMKVLLLLNTIPLEGLRSQTQFEEMRSSYIRELIKAIGLRQKGVVSSSQRFYQLTKLLDNLHDLVKQLHLYCLNTFIQSRALSVEFPEMMSEVIAAQLPKILAGMVKPLLFHKK
modifications: phosphorylated on multiple serine residues (sites not given)
With B1, in data set [1], the binding result was “binds”.

B2: progesterone receptor isoform B (PR-B), full-length, Strep II-tagged (receptor)
chain: MTELKAKGPRAPHVAGGPPSPEVGSPLLCRPAAGPFPGSQTSDTLPEVSAIPISLDGLLFPRPCQGQDPSDEKTQDQQSLSDVEGAYSRAEATRGAGGSSSSPPEKDSGLLDSVLDTLLAPSGPGQSQPSPPACEVTSSWCLFGPELPEDPPAAPATQRVLSPLMSRSGCKVGDSSGTAAAHKVLPRGLSPARQLLLPASESPHWSGAPVKPSPQAAAVEVEEEDGSESEESAGPLLKGKPRALGGAAAGGGAAAVPPGAAAGGVALVPKEDSRFSAPRVALVEQDAPMAPGRSPLATTVMDFIHVPILPLNHALLAARTRQLLEDESYDGGAGAASAFAPPRSSPCASSTPVAVGDFPDCAYPPDAEPKDDAYPLYSDFQPPALKIKEEEEGAEASARSPRSYLVAGANPAAFPDFPLGPPPPLPPRATPSRPGEAAVTAAPASASVSSASSSGSTLECILYKAEGAPPQQGPFAPPPCKAPGASGCLLPRDGLPSTSASAAAAGAAPALYPALGLNGLPQLGYQAAVLKEGLPQVYPPYLNYLRPDSEASQSPQYSFESLPQKICLICGDEASGCHYGVLTCGSCKVFFKRAMEGQHNYLCAGRNDCIVDKIRRKNCPACRLRKCCQAGMVLGGRKFKKFNKVRVVRALDAVALPQPVGVPNESQALSQRFTFSPGQDIQLIPPLINLLMSIEPDVIYAGHDNTKPDTSSSLLTSLNQLGERQLLSVVKWSKSLPGFRNLHIDDQITLIQYSWMSLMVFGLGWRSYKHVSGQMLYFAPDLILNEQRMKESSFYSLCLTMWQIPQEFVKLQVSQEEFLCMKVLLLLNTIPLEGLRSQTQFEEMRSSYIRELIKAIGLRQKGVVSSSQRFYQLTKLLDNLHDLVKQLHLYCLNTFIQSRALSVEFPEMMSEVIAAQLPKILAGMVKPLLFHKK
modifications: phosphorylated on multiple serine residues (sites not given)
Regarding B2, in the data set “SEC-MALS”, the stoichiometry N (in general, a count of units in the complex or per binding partner) worked out at 2. Further, in data set [1], the binding result is reported as “binds”.
